The target of test [1] is cynomologus (cyno) ENTPD2. Description: Biacore (SPR) affinity to cyno ENTPD2 ECD. In kind it is binding, cynomolgus monkey. The conditions noted are these: 25° C. On the procedure:
(§1) Biacore Screening: Affinity was measured by determining the kinetic rate constants using surface plasmon resonance (SPR) on a Biacore T200 or T100 with the T200 sensitivity upgrade instrument (Biacore, GE Healthcare). Antibodies were captured on CM5 sensor chips (Biacore, GE Healthcare) prepared with a mouse anti-human IgG Fc antibody (ThermoFisher catalogue #05-4200) amine coupled to the surface. […] ENTPD2 analytes were allowed to associate for 180 s and dissociate for up to 1800 s depending on the off-rate of the antibody at a flow rate of 30 μL/min. The running buffer was PBS pH 7.2 (prepared from a Corning 10X stock, cat#46-013-CM)+0.05% Tween 20. Regeneration was accomplished with 30 s injections of 3 or 4 M MgCl2 to remove all the captured antibody and remaining complex from the surface, after which fresh antibody was captured. The raw data were analyzed using Biacore T200 Evaluation Software version 1.0 and fit to a 1:1 binding model, with all parameters set to fit globally except for RI, which was set to fit locally.
In general terms: SPR reads the build-up and loss of mass on a sensor chip optically.

For test [2], the target named is T1, mouse ENTPD2 (Mus musculus, UniProt O55026).
T1 construct: residues 29-462 of mouse or rat ENTPD2 (the extracellular domain); mouse IgK signal peptide (N); His6; made in house; host or cells: FreeStyle 293-F cells, transient transfection
T1 sequence (O55026 29-462): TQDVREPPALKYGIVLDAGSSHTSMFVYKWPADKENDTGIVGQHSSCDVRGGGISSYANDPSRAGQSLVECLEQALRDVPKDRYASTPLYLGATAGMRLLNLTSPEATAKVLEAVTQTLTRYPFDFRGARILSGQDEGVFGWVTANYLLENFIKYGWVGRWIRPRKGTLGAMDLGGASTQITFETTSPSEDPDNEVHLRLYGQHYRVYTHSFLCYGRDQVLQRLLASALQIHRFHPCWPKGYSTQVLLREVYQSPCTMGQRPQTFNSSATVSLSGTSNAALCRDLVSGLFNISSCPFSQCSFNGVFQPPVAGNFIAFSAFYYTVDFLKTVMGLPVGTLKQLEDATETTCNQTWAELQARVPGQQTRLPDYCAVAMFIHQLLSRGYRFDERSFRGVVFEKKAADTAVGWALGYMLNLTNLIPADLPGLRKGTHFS
In words: Antibody specificity: binding to mouse ENTPD2. The conditions noted are these: Mouse ENTPD2. An excerpt:
Antibody specificity for mAbl-mAblO was confirmed. […] Antibodies mAb8, mAb9, and mAb10 show weak affinity to mouse ENTPD2. None of the selected antibodies bind to rat ENTPD2.

Another test addresses T2, human ENTPD2 (Homo sapiens, UniProt Q9Y5L3).
T2 construct: residues 29-462 of human or cyno ENTPD2 were cloned into expression vector; GP67 signal peptide (N); made in house; host or cells: High Five (Trichoplusia ni) insect cells, baculovirus
T2 sequence (Q9Y5L3 29-462): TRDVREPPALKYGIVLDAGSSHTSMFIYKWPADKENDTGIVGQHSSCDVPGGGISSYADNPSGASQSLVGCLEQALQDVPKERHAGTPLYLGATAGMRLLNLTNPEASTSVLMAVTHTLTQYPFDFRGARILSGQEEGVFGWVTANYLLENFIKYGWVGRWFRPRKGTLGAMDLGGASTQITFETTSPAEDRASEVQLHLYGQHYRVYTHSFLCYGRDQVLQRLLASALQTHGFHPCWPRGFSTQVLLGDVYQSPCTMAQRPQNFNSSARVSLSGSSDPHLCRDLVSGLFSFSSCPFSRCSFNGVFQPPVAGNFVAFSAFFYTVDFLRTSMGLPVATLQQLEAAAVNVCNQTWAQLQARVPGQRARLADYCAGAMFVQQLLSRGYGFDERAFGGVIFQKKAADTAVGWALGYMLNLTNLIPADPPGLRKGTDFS
In words: Biacore (SPR) affinity to human ENTPD2 ECD. In kind it is binding. The conditions noted are these: 25° C. On the procedure:
as §1

For test [3], the target named is T3, mouse ENTPD2 (Mus musculus, UniProt O55026).
T3 construct: expressed in transfected cells; host or cells: NIH/3T3 (retroviral transduction)
T3 sequence (O55026 1-495): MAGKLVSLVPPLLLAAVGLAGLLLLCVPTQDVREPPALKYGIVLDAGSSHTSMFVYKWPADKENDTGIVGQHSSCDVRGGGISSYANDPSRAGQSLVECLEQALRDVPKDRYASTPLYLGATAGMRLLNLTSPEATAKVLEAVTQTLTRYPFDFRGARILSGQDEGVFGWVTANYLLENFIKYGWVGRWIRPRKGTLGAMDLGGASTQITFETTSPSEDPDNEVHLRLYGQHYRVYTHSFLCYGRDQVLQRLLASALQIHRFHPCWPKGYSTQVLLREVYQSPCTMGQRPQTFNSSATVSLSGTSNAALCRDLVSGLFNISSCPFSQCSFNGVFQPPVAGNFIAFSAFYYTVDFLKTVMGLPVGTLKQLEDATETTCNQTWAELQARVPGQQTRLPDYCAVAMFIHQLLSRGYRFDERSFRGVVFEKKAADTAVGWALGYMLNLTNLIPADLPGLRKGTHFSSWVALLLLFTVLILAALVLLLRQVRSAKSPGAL
In words: Mouse ENTPD2 NIH/3T3 cell-based functional assay. The conditions noted are these: mouse ENTPD2 NIH/3T3 cells, 100 nM. An excerpt:
Biochemical and cell-based functional assays were developed in-house to understand functional impact of anti-ENTPD2 Abs against purified extracellular domain of ENTPD2 (residues 29-462), as well as against the fully intact protein in the context of the native cell-based conformation. ENTPD2 hydrolyzes ATP to ADP, which can subsequently be detected using the HTRF Transcreener ADP2 TR-FRET Red Assay (BellBrook Labs, Madison, Wis.) where ENTPD2-produced ADP would compete with the ADP Tracer for binding to the anti-ADP-Tb antibody. The resulting signal is inversely proportional to the concentration of ADP in the sample.
To establish cell-based functional assays, human/cyno/mouse ENTPD2-engineered NIH/3T3 cells or RKO (ATCC, Manassa Va.) colorectal cancer cells with endogenous ENTPD2 expression were plated overnight at 150, 200 and 250 cells per well for NIH/3T3 mouse, cyno and human ENTPD2 lines, respectively, or 1000 cells per well for RKO in 384-well tissue culture plate, in 30 μl per well (Perkin Elmer, Waltham, Mass.). The following day cells were pre-incubated with Anti-ENTPD2 Abs in dose response for 60 min at 37° C., 5% CO2 (10 μl of 5× antibody dose per well), and subsequently stimulated with a final concentration of 10 μM ATP (Teknova, Hollister, Calif.) for 20 minutes at room temperature (10 μl of 5× (50 μM) ATP per well). Reactions were quenched with 40 mM EDTA/40 mM EGTA, 25 μl per well, and 15 μl of quenched media was transferred to low volume Proxiplates (PerkinElmer, Waltham, Mass.) for ADP detection. ADP production was detected with the Transcreener ADP2 TR-FRET Red Assay (BellBrook Labs, Madison, Wis.) with a final concentration of 4 nM ADP2 antibody and 13.4 nM of ADP Tracer in wells (4× solution was prepared and 5 μL of “Detection Reagent Mix” was added to the quenched conditioned media). Plates were incubated with detection reagents for 1 hour at room temperature prior to reading plates in HTRF mode.
HTRF signal (Emission at 620 nm and 665 nm) was assessed in both assays using the Envision plate reader in HTRF mode (Perkin Elmer, Waltham, Mass.). HTRF ratio was determined using the following formula: HTRF ratio=R=Emission at 665 nm/Emission at 620 nm×10,000. Subsequently % Residual Activity and % Inhibition were determined as follows:
Where R0% is the HTRF ratio of the negative control (0% enzyme activity), and R100% is the HTRF ratio of the positive control (100% enzyme activity). Data were analyzed in Microsoft Excel and graphed using GraphPad's Prism 7.0 software and IC50 values were obtained using non-linear regression, log (agonist) vs. response-variable slope (four parameters) analysis.
Anti-ENTPD2 mAb13 was identified as a mouse ENTPD2 selective Ab (FACS EC50 3-4 nM) with no binding to human or cyno ENTPD2.

Substitutions are numbered along the chain they refer to.

The term Kd denotes the constant that tells how readily two partners part at equilibrium. Lower therefore signals a tighter complex. Usually % Inhibition stands for the percentage by which the read-out fell short of the control. A higher % Inhibition goes with strong suppression.

Sequence of cynomologus (cyno) ENTPD2 (as listed by the source): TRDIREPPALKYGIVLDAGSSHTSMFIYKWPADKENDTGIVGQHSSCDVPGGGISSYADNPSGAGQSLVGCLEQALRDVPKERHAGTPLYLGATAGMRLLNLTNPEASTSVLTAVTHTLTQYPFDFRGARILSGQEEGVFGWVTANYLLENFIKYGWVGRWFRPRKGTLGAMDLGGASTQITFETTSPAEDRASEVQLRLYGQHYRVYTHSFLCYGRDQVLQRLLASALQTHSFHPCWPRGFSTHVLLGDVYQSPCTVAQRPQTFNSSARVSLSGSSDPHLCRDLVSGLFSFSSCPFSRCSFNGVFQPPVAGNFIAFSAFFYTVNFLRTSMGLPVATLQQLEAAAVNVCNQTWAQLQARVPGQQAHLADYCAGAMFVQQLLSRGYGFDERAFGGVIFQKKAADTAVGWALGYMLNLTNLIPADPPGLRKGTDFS

B1: mAb2: humanized anti-human ENTPD2 antibody from mAb17; VH SEQ ID NO: 25, VL SEQ ID NO: 29 (antibody, V domains shown)
VH: QVQLVQSGAEVVKPGASVKISCKASGYTFTDYNMDWVKQAPGQRLEWIGDINPKYDISTYNQQFKGKATITVDKSASTAYMELSSLRSEDTAVYYCARRGFFLYYGINYYYFDVWGQGTLVTVSS
VL: EIVLTQSPATLSASPGERITLSCSASSSVSYIHWYQQKPGQAPRLLIYSTSNLASGIPARFSGSGSGTFYTLTISSVEPEDAAVYYCHQWSSYPWTFGGGTKLEIK
In the case of B1, in test [1], the dissociation constant Kd is 2.8 nM, the ka was 430000 M⁻¹ s⁻¹ and the kd was 0.0012 s⁻¹. Moreover, the “BIACore KD” value in the test with mouse ENTPD2 [2] was “No binding”. In the test with human ENTPD2, the dissociation constant (Kd) came out at 1.7 nM, the ka is 110000 M⁻¹ s⁻¹ and the kd is 0.00018 s⁻¹.

B2: mAb4: humanized anti-human ENTPD2 antibody from mAb16; VH SEQ ID NO: 46, VL SEQ ID NO: 57 (antibody, V domains shown)
VH: QIQLQESGPGLVKPSQTLSLTCTVSGYSITSGYYWNWIRQHPGKGLEWIGYISYDADNNYNPSLKNRVTISRDTSKNQFSLKLSSVTAADTAVYYCAGGYYRYGLGSYRGSYYYVMDYWGQGTTVTVSS
VL: ETVLTQSPATLSVSPGERATISCKASQSVDYEGHSYMNWYQQKPGQAPRLLIYAASNLESGIPARFSGSGSGTDFTLTISSVEPEDAATYYCQQSNEDPPTFGGGTKLEIK
In test [1], B2 had a ka of 140000 M⁻¹ s⁻¹ and a kd of 0.0057 s⁻¹. Besides, the “BIACore KD” value in the test with mouse ENTPD2 [2] is recorded as “No binding”. In the test with human ENTPD2, the ka was 300000 M⁻¹ s⁻¹ and the kd turned out to be 0.00022 s⁻¹.

B3: mAb5: humanized anti-human ENTPD2 antibody from mAb16; VH SEQ ID NO: 46, VL SEQ ID NO: 64 (antibody, V domains shown)
VH: B2 VH
VL: B2 VL with E32D, H34N
As to B3, the results for the ka (in test [1]; with human ENTPD2) were 290000 M⁻¹ s⁻¹ and 270000 M⁻¹ s⁻¹, respectively. In addition, the kd in test [1] turned out to be 0.003 s⁻¹; with human ENTPD2, 0.00016 s⁻¹. Besides, in the test with mouse ENTPD2 [2], the “BIACore KD” value is given as “No binding”.

B4: mAb14: anti-mouse ENTPD2 antibody, T30 variant of mAb13; HC SEQ ID NO: 211, LC SEQ ID NO: 204 (antibody)
heavy: QVQLVQSGAELKQPGQSVKISCKASGYTFWHYGMNWVKQAPGQGLKWMGWINTDTGNPTYADDFKGRFVFSLDTSVSTAYLQISNLKNEDTATYYCVRYGTLYSGYGFFFDSWGQGTLVTVSSAKTTAPSVYPLAPVCGDTTGSSVTLGCLVKGYFPEPVTLTWNSGSLSSGVHTFPAVLQSDLYTLSSSVTVTSSTWPSQSITCNVAHPASSTKVDKKIEPRGPTIKPCPPCKCPAPNLLGGPSVFIFPPKIKDVLMISLSPIVTCVVVDVSEDDPDVQISWFVNNVEVHTAQTQTHREDYNSTLRVVSALPIQHQDWMSGKEFKCKVNNKDLPAPIERTISKPKGSVRAPQVYVLPPPEEEMTKKQVTLTCMVTDFMPEDIYVEWTNNGKTELNYKNTEPVLDSDGSYFMYSKLRVEKKNWVERNSYSCSVVHEGLHNHHTTKSFSRTPGK
light: DIMMTQSPSSLSVSAGEKATITCKSSQSLFNSNTNKNYLNWYLQKPGQSPKLLFYYASTRHTGVPDRFIGSGSGTDFTLTITSVQDEDLADYYCQQWYSYPWTFGPGTKLEIKRADAAPTVSIFPPSSEQLTSGGASVVCFLNNFYPKDINVKWKIDGSERQNGVLNSWTDQDSKDSTYSMSSTLTLTKDEYERHNSYTCEATHKTSTSPIVKSFNRNEC
Turning to B4, the “% Inhibition at 100 nM (±Std Err)” value with mouse ENTPD2 [3] worked out at 79 ± 2.2%.

B5: mAb15: anti-mouse ENTPD2 antibody, T30 variant of mAb13; HC SEQ ID NO: 218, LC SEQ ID NO: 204 (antibody)
heavy: B4 heavy with W30H
light: B4 light
As to B5, the “% Inhibition at 100 nM (±Std Err)” value with mouse ENTPD2 [3] was found to be 76 ± 3.4%.

(Values after US20220348651A1, “ENTPD2 ANTIBODIES, COMBINATION THERAPIES, AND METHODS OF USING THE ANTIBODIES AND COMBINATION THERAPIES” (Novartis AG, priority 2019, published 2022).)
